Read-outs that look alike come from different tables or passages of the source.
Assays:
Assay in all cases: ITC; aliquots of HasBCTD variants (80-200 μM) injected into the cell containing HasR wild type or mutant proteins (4-15 μM); 25°C; 20 mM sodium phosphate, pH 7, 0.08% Zwittergent 3-14; fit to a model with one set of sites
[1] = target: HasR_(ΔNterL1) (HasR_(ΔNter) with loop L1 P232GKE replaced by ATSA) (Serratia marcescens) (UniProt Q79AD2)
[2] = target: HasR_(ΔNter) (HasR without the signaling domain, linker and TonB-box) (Serratia marcescens) (UniProt Q79AD2)
[3] = target: HasR_(ΔNterL1) (HasR_(ΔNter) with loop L1 P232GKE replaced by ATSA) (Serratia marcescens) (UniProt Q79AD2); remark: listed apart in the source
[4] = target: HasR_(ΔNter) (HasR without the signaling domain, linker and TonB-box) (Serratia marcescens) (UniProt Q79AD2); remark: listed apart in the source
[5] = target: HasR wild type (outer membrane heme transporter, TonB-dependent transporter) (Serratia marcescens)
[6] = target: HasR_(ΔNterL10short) (HasR_(ΔNter) with loop L10 R774AFDRKLD replaced by ATSA) (Serratia marcescens) (UniProt Q79AD2)

## HasBCTD (periplasmic C-terminal domain of the TonB-like protein HasB), wild type (domain or fragment)
[1]
  dH: 9.2 kcal/mol
[2]
  dH: 11.1 kcal/mol
[3]
  Ka: 3.03e+06 M⁻¹
  dH: -9.2 kcal/mol
  stoichiometry N: 1.1
[4]
  Ka: 2.3e+06 M⁻¹
  dH: -11.1 kcal/mol
  stoichiometry N: 1.1
[5]
  Ka: 7.5e+07 M⁻¹
  dH: -19.1 kcal/mol
  stoichiometry N: 1.03
[6]
  Ka: 1.45e+08 M⁻¹
  dH: -2.9 kcal/mol
  stoichiometry N: 0.98
